Source: the Human Domainome abundance scans (Beltran et al. 2025)
± gives the uncertainty stated by the source.

B1: Steroid hormone receptor ERR2, residues 100 to 176; numbered along this chain, O95718 (parent)
chain: KRLCLVCGDIASGYHYGVASCEACKAFFKRTIQGNIEYSCPATNECEITKRRRKSCQACRFMKCLKVGMLKEGVRLD

Variants of: B1
Test: abundance fitness (aPCA) (normalised: wild type 0, dead -1); higher = more abundant; growth selection in yeast, the domain comes from the species named
Conditions: Homo sapiens

Variant	abundance fitness
KRLCLVCGDIASGYHYGVASCEACKAFFKRTIQGNIEYSCPATNECEITKRRRKSCQACRFMKCLKVGQLKEGVRLD [M69Q]	-0.752 ± 0.14
KRLCLVCGDIASGYHYGVASCEACKAFFKRTIQGNIEYSCPATNECEITKRRRKSCQACRFMKCLKVGGLKEGVRLD [M69G]	-0.703 ± 0.075
KRLCLVCGDIASGYHYGVASCEACKAFFKRTIQGNIEYSCPATNECEITKRRRKSCQACRFMKCLKVGHLKEGVRLD [M69H]	-1.06 ± 0.37
KRLCLVCGDIASGYHYGVASCEACKAFFKRTIQGNIEYSCPATNECEITKRRRKSCQACRFMKCLKVGILKEGVRLD [M69I]	-0.581 ± 0.2
KRLCLVCGDIASGYHYGVASCEACKAFFKRTIQGNIEYSCPATNECEITKRRRKSCQACRFMKCLKVGWLKEGVRLD [M69W]	-0.231 ± 0.059
KRLCLVCGDIASGYHYGVASCEACKAFFKRTIQGNIEYSCPATNECEITKRRRKSCQACRFMKCLKVGPLKEGVRLD [M69P]	-0.782 ± 0.17
KRLCLVCGDIASGYHYGVASCEACKAFFKRTIQGNIEYSCPATNECEITKRRRKSCQACRFMKCLKVGYLKEGVRLD [M69Y]	-0.259 ± 0.097
KRLCLVCGDIASGYHYGVASCEACKAFFKRTIQGNIEYSCPATNECEITKRRRKSCQACRFMKCLKVGELKEGVRLD [M69E]	-0.57 ± 0.1
KRLCLVCGDIASGYHYGVASCEACKAFFKRTIQGNIEYSCPATNECEITKRRRKSCQACRFMKCLKVGRLKEGVRLD [M69R]	-0.729 ± 0.075
KRLCLVCGDIASGYHYGVASCEACKAFFKRTIQGNIEYSCPATNECEITKRRRKSCQACRFMKCLKVGTLKEGVRLD [M69T]	-0.54 ± 0.12
KRLCLVCGDIASGYHYGVASCEACKAFFKRTIQGNIEYSCPATNECEITKRRRKSCQACRFMKCLKVGDLKEGVRLD [M69D]	-0.694 ± 0.15
KRLCLVCGDIASGYHYGVASCEACKAFFKRTIQGNIEYSCPATNECEITKRRRKSCQACRFMKCLKVGFLKEGVRLD [M69F]	0.058 ± 0.083
KRLCLVCGDIASGYHYGVASCEACKAFFKRTIQGNIEYSCPATNECEITKRRRKSCQACRFMKCLKVGKLKEGVRLD [M69K]	-0.931 ± 0.18
KRLCLVCGDIASGYHYGVASCEACKAFFKRTIQGNIEYSCPATNECEITKRRRKSCQACRFMKCLKVGALKEGVRLD [M69A]	-0.639 ± 0.094
KRLCLVCGDIASGYHYGVASCEACKAFFKRTIQGNIEYSCPATNECEITKRRRKSCQACRFMKCLKVGCLKEGVRLD [M69C]	-0.937 ± 0.21
KRLCLVCGDIASGYHYGVASCEACKAFFKRTIQGNIEYSCPATNECEITKRRRKSCQACRFMKCLKVGLLKEGVRLD [M69L]	-0.431 ± 0.06
KRLCLVCGDIASGYHYGVASCEACKAFFKRTIQGNIEYSCPATNECEITKRRRKSCQACRFMKCLKVGNLKEGVRLD [M69N]	-0.642 ± 0.17
KRLCLVCGDIASGYHYGVASCEACKAFFKRTIQGNIEYSCPATNECEITKRRRKSCQACRFMKCLKVGVLKEGVRLD [M69V]	-0.749 ± 0.095

Variant	abundance fitness
KRLCLVCGDIASGYHYGVASCEACKAFFKRTIQGNIEYSCPATNECEITKRRRKSCQACRFMKCLKCGMLKEGVRLD [V67C]	-0.027 ± 0.074
KRLCLVCGDIASGYHYGVASCEACKAFFKRTIQGNIEYSCPATNECEITKRRRKSCQACRFMKCLKGGMLKEGVRLD [V67G]	-0.425 ± 0.056
KRLCLVCGDIASGYHYGVASCEACKAFFKRTIQGNIEYSCPATNECEITKRRRKSCQACRFMKCLKPGMLKEGVRLD [V67P]	-1.03 ± 0.24
KRLCLVCGDIASGYHYGVASCEACKAFFKRTIQGNIEYSCPATNECEITKRRRKSCQACRFMKCLKTGMLKEGVRLD [V67T]	-0.262 ± 0.079
KRLCLVCGDIASGYHYGVASCEACKAFFKRTIQGNIEYSCPATNECEITKRRRKSCQACRFMKCLKNGMLKEGVRLD [V67N]	-0.538 ± 0.24
KRLCLVCGDIASGYHYGVASCEACKAFFKRTIQGNIEYSCPATNECEITKRRRKSCQACRFMKCLKSGMLKEGVRLD [V67S]	-0.073 ± 0.054
KRLCLVCGDIASGYHYGVASCEACKAFFKRTIQGNIEYSCPATNECEITKRRRKSCQACRFMKCLKEGMLKEGVRLD [V67E]	-0.145 ± 0.058
KRLCLVCGDIASGYHYGVASCEACKAFFKRTIQGNIEYSCPATNECEITKRRRKSCQACRFMKCLKIGMLKEGVRLD [V67I]	-0.323 ± 0.14
KRLCLVCGDIASGYHYGVASCEACKAFFKRTIQGNIEYSCPATNECEITKRRRKSCQACRFMKCLKMGMLKEGVRLD [V67M]	-0.061 ± 0.069
KRLCLVCGDIASGYHYGVASCEACKAFFKRTIQGNIEYSCPATNECEITKRRRKSCQACRFMKCLKDGMLKEGVRLD [V67D]	-0.646 ± 0.21
KRLCLVCGDIASGYHYGVASCEACKAFFKRTIQGNIEYSCPATNECEITKRRRKSCQACRFMKCLKRGMLKEGVRLD [V67R]	-0.409 ± 0.056
KRLCLVCGDIASGYHYGVASCEACKAFFKRTIQGNIEYSCPATNECEITKRRRKSCQACRFMKCLKQGMLKEGVRLD [V67Q]	-0.439 ± 0.09
KRLCLVCGDIASGYHYGVASCEACKAFFKRTIQGNIEYSCPATNECEITKRRRKSCQACRFMKCLKAGMLKEGVRLD [V67A]	-0.121 ± 0.055
KRLCLVCGDIASGYHYGVASCEACKAFFKRTIQGNIEYSCPATNECEITKRRRKSCQACRFMKCLKYGMLKEGVRLD [V67Y]	-0.347 ± 0.14
KRLCLVCGDIASGYHYGVASCEACKAFFKRTIQGNIEYSCPATNECEITKRRRKSCQACRFMKCLKHGMLKEGVRLD [V67H]	-0.321 ± 0.17
KRLCLVCGDIASGYHYGVASCEACKAFFKRTIQGNIEYSCPATNECEITKRRRKSCQACRFMKCLKLGMLKEGVRLD [V67L]	-0.222 ± 0.057
KRLCLVCGDIASGYHYGVASCEACKAFFKRTIQGNIEYSCPATNECEITKRRRKSCQACRFMKCLKWGMLKEGVRLD [V67W]	-0.665 ± 0.13
KRLCLVCGDIASGYHYGVASCEACKAFFKRTIQGNIEYSCPATNECEITKRRRKSCQACRFMKCLKFGMLKEGVRLD [V67F]	-0.24 ± 0.15
